# Reference: the DeepSol protein solubility set
# Assay: soluble on expression in E. coli; label from the status in PepcDB or PDB records
row,Sequence,soluble on expression in E. coli
1,MGSRENLYFQGLEHHHHHHHMGHETKAQLKDYVEVKIMKIKTTVAALSVLSVLSFGAFAADSIDAAQAQNREAIGTVSVSGVASSPMDMREMLNKKAEEKGATAYQITEARSGDTWHATAELYK,soluble
2,GPGSMSAIPPPHYVRLRRYNLSIFVHCDVHNDTVQAIKERYGKLTGHIFYNARLYLGQQSLDDFLTLYGCGIEAEGAELVVVHSKGAKGDGTSEHIWETVEEAMAAPQGDSLNSPEVTAEGTAKLDSMEAAATSNEVGNQQQQQAADARGGTGAELNVGFVGV,soluble
3,MLAGLQKTTLVNFPRRVAAAVFLPGCNIRCPYCHNAELALASPSSFTANQESSNDYYELSEIYTFLERRKNLISGLVISGGEPFMSPALFELIERAKSLNLAVKIDTNGLFPERIEEVLRSSNLQPDMIAIDVKTSPERYGELLASKTDSAAKKAKTALLKTLDILKSNTEKTEVEYRTVLAPPLVSEDEIKKIASLLPKNARWRLAQFVPGTCLNPEWNSVEPYPLSQAQALTAIAKSLIPDTELR,not soluble
4,LQKVFDNTVVQNSDIKKFNESKLIKPNLMQEHALKSLESLRNVGEEKGLIISATGTGKTILCALDVRAYSPDKFLFIVHNEGILNRAIEEFKKVFPYEDESNFGLLTGKRKDHDAKFLFATIQTLSKKENYKLFNSNHFDYIVFDEAHRIAASSYQKIFNYFKPNFLLGMTATPERTDELNIFE,not soluble
5,MGSDKIHHHHHHMVMERGEIIGIVLQKSEANEMQGLIRADEEISVGQLLLVDDSEKLSLVRVENYEFLNEFFDEKGEIAKSILKEPSIYEILDMNTIIKATLHLIKKYDHNTTPKPGSFVRRLPEIKSEKELLSFYGIKNKKGLIEYGALAGSEIPLLLDLNAITMHMGVFGETGSGKSYNMRYLIKLLSNIKIGDKITALPMIVIDANGDYIDLASTNLDIVSKGRGWIKRYILKDPKEQNDIKLTIDLSIFTPRELSEFIMSLKYGEASYNTLQLNFLEQVLANHESKEYNTLLGSAIGIETLRNEILTMAQNKDIGITTGTARGIASALEIFKNKVISRLQLVNSSASLTENTLEVIWRNRGLAIIDFSADGSPGVDVLTKQLIVSYITRLIFNYLTRSKYNGNQRFLGFVIEEAQNYIPSIDYPVNANLTKDVLVTLATQGRKFGASLILVSQRPAFIDKYVLSMINTFFFHRIYHEDVRYVMSASGGLPESLTKNLTSLDTGYVIVSGLMSIMKSPALVRIPWDPRLGSYAGNVERIDLILSEG,not soluble
6,MGHHHHHHSHMHDSANCELPLLTPCSKAVMSQALKATFSGFKKEQRRLGIPKNPWLWSEQQVCQWLLWATNEFSLVNVNLQRFGMNGQMLCNLGKERFLELAPDFVGDILWEHLEQMIKENQEKTE,not soluble
7,GMTVRDENYFTEKYGLTRTHSDVLAAAKVVAPGRTLDLGCGNGRNSLYLAANGYDVTAWDKNPASMANLERIKAAEGLDNLQTDLVDLNTLTFDGEYDFILSTVVMMFLEAQTIPGLIANMQRCTKPGGYNLIVAAMDTPDFPCTVGFPFAFKEGELRRYYEGWDMLKYNEDVGELHRTDENGNRIKLRFATMLARKTA,soluble
8,FSSREQPQQNEGQIQKLNALKPDNRIESEGGLIETWNPNNKPFQCAGVALSRCTLNRNALRRPSYTNGPQEIYIQQGKGIFGMIYPGCPSTFEEPQQPQQRGQSSRPQDRHQKIYNFREGDLIAVPTGVAWWMYNNEDTPVVAVSIIDTNSLENQLDQMPRRFYLAGNQEQEFLKYQQEQGGHQSQKGKHQQEEENEGGSILSGFTLEFLEHAFSVDKQIAKNLQGENEGEDKGAIVTVKGGLSVIKPPTDEQQQRPQEEEEEEEDEKPQCKGKDKHCQRPRGSQSKSRRNGIDETICTMRLRHNIGQTSSPDIYNPQAGSVTTATSLDFPALSWLRLSAEFGSLRKNAMFVPHYNLNANSIIYALNGRALIQVVNCNGERVFDGELQEGRVLIVPQNFVVAARSQSDNFEYVSFKTNDTPMIGTLAGANSLLNALPEEVIQHTFNLKSQQARQIKNNNPFKFLVPPQESQKRAVA,soluble
9,MKVYEFGKKENPAIMLLPGTCCHWKNNFSNVIDLLIEDFFVVCVSYDGFDETEKSEFQDMVTEVRKIENYINERFQGKIHAVYGCSLGG,not soluble
10,MGSDKIHHHHHHMASFIASDQDVKNFLTAPSMNDQEGIGFAYATDEAVLKALIPAPLKLMAPVVCGYVVHMGKPTFSAPYLEESLFALVSYKDKMMGAYPINLLLHGPGAESGVIAGREGAGIPKKLADDIELRRNDNSATATVERHGKTLLNVSWTAGELNDPSIMKQFAGQLALGKEAEMNSFFYKYDIDQHEDGTNHFSNVQLVATQLRSLADQVEPGNLSIQLESTDDDPFGELKVLKPLGAAWFHFDTSVMFNTLKLDEVDAATTMPKLLTGRYDRSFFNPKAATYII,not soluble
11,MKQGTMKILFFVLKTKLLKNGEAPILMRITINGQYEETRIQRSVPLKLWNAAKGCSKGKDRASNELNSYLSELATRALEKYKELILEQAISTPSLILKRVFGKDTEMRTLLGTIRQEIKEMEKVVNIDYAPVTINRYKNVLKKLENSIPTFYDKEDITFHELTPEFIKAFDLHLKTEVGLCRNTIVRYMKCFKKITNMALAKGWMKKDAFYGYKMEQDETDPVFLTYDELQTVMNKEFTIPRLVLVRDIFIFACFTGLAFADVSTLKKEDLVQDNNGDWWIRKGRIKLMHRHKASSICNIPLLPVPLAILKKYENNPVCIKKGCCLPVPCNQKMNSYLKEIADFCGIKKNITTHAGRHTFGTTITLANNVPLQDVSVMLGHASTRMTQHYARVMNASLKKSMLNVKKRLTQ,not soluble
12,MFKSLSQLFRPRVEALGLEIGASALKLVEVSGNPPALKALASRPTPPGLLMEGMVAEPAALAQEIKELLLEARTRKRYVVTALSNLAVILRPIQVPKMPLKEMEEAVRWEAERYIPFPIDEVVLDFAPLTPLSEVQEGEQVQVMVAAARQEAVAGVLEALRGAGLVPVVLDVKPFAGLYPLEARLAEEPDRVFLALDIGAESTSLVLLRGDKPLAVRVLTLSGKDFTEAIARSFNLDLLAAEEVKRTYGMATLPTEDEELLLDFDAERERYSPGRIYDAIRPVLVELTQELRRSLEFFRIQLEEASPEVGYLLGGGSKLRGLASLLTDTLGVNFEPVNPWEAVAVDPKRFESEQLQEIGPEFAVALGLALRGVEPLD,soluble
13,MIRLAHADDLLILQEIERAAGQAFRALGMDSIADDEPLSIDELNSYATAGRAWVSVDGLDYPVAYLLADIVDGAGHVEQVSVHPDQAHQGLGRELLHAARVWTRGHGMQRQTLSTFRDVPWNAPYYRRLGFDVLDAGSWGPQLAHLMEHEAELGLTRWPRVAMWRPAVPPK,soluble
14,MTNITASIVLYNNPIDQIRQCIESMQADTRVHVLLVDNSEKKGGYTGLAADNVEILDAPGNVGFGRGHNLVLGRLAALRSEVHLVVNPDIVVSAGCVQAVADVLRQRKDVTLVGPRVVSPDGALYRSCKLLPTPWNLFARRFAPRQLYAAADARYELEAFGYDRELRLHNLSGAFLAFRSEAFTALGGFDPRYFMYLEDVDICRRAAGLGAVIFLPQAEVVHEHGKGSYRSWRLLREHMRSAILYFNRFGWFVDAERRLLNRETLARVNDMRSVVLEHHHHHH,not soluble
15,FSNKRVLVEKEGEAGIAVMKFKNPPVNSLSLEFLTEFVISLEKLENDKSIRGVILTSERPGIFSAGLDLMEMYGRNPAHYAEYWKAVQELWLRLYLSNLTLISAINGASPAGGCLMALTCDYRIMADNSKYTIGLNESLLGIVAPFWLKDNYVNTIGHRAAERALQLGTLFPPAEALKVGLVDEVVPEDQVHSKARSVMAKWFTIPDHSRQLTKSMMRKATADNLIKQREADIQNFTSFISRDSIQKSLHVYLEKLKQKKG,soluble
16,RTDTIMVLNVGNKDKKIKMVSFMRDTLVNIKGVSADNYSYDNKLNSAFNIGEQDNNQGAELMRQTLKRNFDIDIKYYVMVDFQTFAEAIDTLFPNGVEINAKFATVGGEAVDSVEVPDDLNMKDGVVPNQTISVGKQKMDGRTLLNYARFRKDDEGDFGRTKRQQQVMSAIMSQIKD,not soluble
